For experiment [1], the target named is T1, recombinant soluble human TREM2 protein (human TREM2 ECD-FlagHis) (human, UniProt Q9NZC2 19-174).
T1 sequence: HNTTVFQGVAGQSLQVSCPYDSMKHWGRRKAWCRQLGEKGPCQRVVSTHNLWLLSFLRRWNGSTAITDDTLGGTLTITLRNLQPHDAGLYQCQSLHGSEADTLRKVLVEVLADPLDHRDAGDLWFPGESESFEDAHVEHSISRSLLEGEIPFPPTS
Nature of the experiment: Octet BLI binning; competitor: load Ab 24A10. The method, then:
(§1) Each of sixteen different anti-TREM2 antibodies produced from hybridomas were quantitated and loaded onto one of the anti-human Fc sensors at 5 μg/mL for 2 minutes (“Load Antibody”). The sensor was then blocked with 100 μg/mL of an irrelevant human IgG2 antibody for 5 minutes. […] Next, each of the sixteen different anti-TREM2 antibodies (“Sandwich Antibody”) was added to the sensor at 5 μg/mL and allowed to bind for 5 minutes. All assay buffers contained 10 mM Tris (pH 7.6), 0.1% Triton X-100, 150 mM NaCl, 1 mM CaCl₂, and 1 mg/mL BSA. The assay was conducted at 25° C. Experimental kinetic results were fit to a 1:1 binding model.
(§2) However, if addition of the sandwich antibody produces a binding event, then the sandwich antibody binds to a different epitope on human TREM2 than the load antibody and the two antibodies are categorized into different epitope bins.
Background: BLI is a label-free optical method that tracks binding on a fibre tip over time.

Experiment [2] deals with T1, recombinant soluble human TREM2 protein …. In words: Octet BLI binning; competitor: load Ab 26F2. The method, then:
as §1, §2

Experiment [3] shares this target. Nature of the experiment: Octet BLI binning; competitor: load Ab 6E7. The method, then: as §1, §2
Experiment [4] has the same target. Nature of the experiment: Octet BLI binning; competitor: load Ab 33B12. The method, then: as §1, §2
For experiment [5] the target is unchanged. In words: Octet BLI binning; competitor: load Ab 32E3. The method, then: as §1, §2
Experiment [6] has the same target. Nature of the experiment: Octet BLI binning; competitor: load Ab 24G6. How it is done: as §1, §2
Experiment [7] shares this target. In words: Octet BLI binning; competitor: load Ab 10E3. The method, then:
as §1, §2

Experiment [8] addresses T2, soluble human TREM2 protein (TREM2 ECD-huIgG1 Fc fusion protein) (human, UniProt Q9NZC2 19-174, biotinylated).
T2 construct: also called biotinylated soluble human TREM2 protein
T2 sequence: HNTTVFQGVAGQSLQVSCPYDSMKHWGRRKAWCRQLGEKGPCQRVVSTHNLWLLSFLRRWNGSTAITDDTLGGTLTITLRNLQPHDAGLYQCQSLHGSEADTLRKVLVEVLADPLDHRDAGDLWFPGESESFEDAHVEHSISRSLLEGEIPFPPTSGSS
Nature of the experiment: ELISA, hybridoma supernatant on captured biotinylated TREM2 ECD-Fc. How it is done: Exhausted hybridoma supernatants were tested for binding to human TREM2 by ELISA. Briefly, neutravidin plates were generated by incubating a 384 well Corning Assay Plate 3702 with neutravidin (Thermo 3100B) at 10 μg/mL (40 μL/well) in 1× PBS at 4° C. overnight. The plates were washed with 1× PBS using a Biotek plate washer and then blocked with 1% milk/1× PBS (90 μL/well) at room temperature (RT) for 30 minutes. The plates were then washed again with 1× PBS using the plate washer. […] The plates were then incubated at RT for 1 hour to immobilize the TREM2 protein to the wells of the plates. Following the incubation, the plates were again washed with 1× PBS using the plate washer. 10 μL of each hybridoma supernatant to be tested and 40 μL of 1% milk/1× PBS (1:5 dilution) were added to each well of the plates and incubated at RT for 1 hour. Again, the plates were washed with 1× PBS using the plate washer. […] After the plates were washed with 1× PBS using the plate washer, 40 μL/well of TMB substrate (Neogen, lot #150114) was added to the plates and the plates were incubated at RT for 30 minutes. The reaction was quenched with 1N hydrochloric acid (40 uL/well) following the incubation period. OD readings at 450 nm were obtained with a plate reader.
(In general: An ELISA detects its analyte on a solid surface through an enzyme-linked reagent.)

The target of experiment [9] is T1, recombinant soluble human TREM2 protein …. Nature of the experiment: Octet BLI binning; competitor: load Ab 24F4. The method, then:
as §1, §2

Experiment [10] has the same target. Nature of the experiment: Octet BLI binning; competitor: load Ab 26A10. The method, then:
as §1, §2

Experiment [11] has the same target. Nature of the experiment: Octet BLI binning; competitor: load Ab 13E7. How it is done: as §1, §2
Experiment [12] has the same target. In words: Octet BLI binning; competitor: load Ab 5E3. The method, then:
as §1, §2

Experiment [13] shares this target. In words: Octet BLI binning; competitor: load Ab 16B8. The method, then: as §1, §2
The target is the same in experiment [14]. Nature of the experiment: Octet BLI binning; competitor: load Ab 25F12. How it is done:
as §1, §2

The target is the same in experiment [15]. In words: Octet BLI binning; competitor: load Ab 26C10. How it is done: as §1, §2
Experiment [16] has as its target T3, human TREM2 on cells (human, UniProt Q9NZC2 19-230).
T3 sequence: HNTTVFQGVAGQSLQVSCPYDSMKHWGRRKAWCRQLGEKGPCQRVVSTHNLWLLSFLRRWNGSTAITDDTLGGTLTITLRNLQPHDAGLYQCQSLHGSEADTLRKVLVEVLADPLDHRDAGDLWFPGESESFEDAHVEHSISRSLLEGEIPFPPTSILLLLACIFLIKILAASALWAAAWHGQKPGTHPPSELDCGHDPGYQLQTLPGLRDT
In words: cell-based or functional assay.

Experiment [17] has as its target T3, human TREM2 on cells. In words: cell-based or functional assay. This is another data set of the same source.

B1: 16B8 (antibody, human IgG4, V domains shown)
VH: QVQLVQSGAEVKKPGASVKVSCKASGYTFTNYGISWVRQAPGQGLEWMGWISAYNGNTNYAQKLQGRVTMTTDTSTSTVYMELRSLRSDDTAVYYCARRGYSYGSFDYWGQGTLVTVSS
VL: DIQMTQSPSSVSASVGDRVTVTCRASQDINSWLAWYQQKPGKAPKLLIYAASSLQTGVPSRFSGSGSGTDFTLTISSLQPEDFATYSCQQSNSFPITFGQGTRLEIK
notes: human IgG4 (G4) from hybridoma
For the molecule B1, the sandwich binding signal in experiment [1] was 0.423; in experiment [2] it was 0.031; in experiment [3], 0.504; in [4] it was 0.007; in [5], 0.4; in experiment [6], 0.369. In addition, the sandwich binding signal was 0.28 in experiment [7]; 0.454 in experiment [9]; 0.028 in [10]; 0.312 in experiment [11]; -0.004 in [12]; -0.009 in [13]. Also, the sandwich binding signal came out at 0.399 in experiment [14] and 0.006 in experiment [15]. The “OD 450” value in experiment [8] is 0.59 OD450. Also, the “Emax (% maximum activation compared to RnD antibody)” value in [16] stood at 140%. Also, the “pSyk EC50, differentiated THP-1 cells” value in experiment [16] worked out at 0.418 nM.

B2: 24F4 (antibody, human IgG2, V domains shown)
VH: EVQLVQSGAEVKKPGESLKISCKGSGYTFTSYWIGWVRQMPGKGLEWMGIIYPGDSDTRYSPSFQGQVTISVDKSSSTAYLQWSSLKASDTAIYYCTRQAIAVTGLGGFDPWGQGTLVTVSS
VL: EIVLTQSPGTLSLSPGERATLSCRASQSVSSSYLAWYQQKPGQAPRLLIYGASSRATGIPDRFSGSGSGTDFTLTISRLEPEDFALYYCQQYDTSPFTFGPGTKVDIK
notes: human IgG2 from hybridoma
Take B2: the sandwich binding signal in experiment [1] is 0.335; in [2], 0.282; in [3], -0.039; in experiment [4] it was 0.25; in experiment [5], -0.001; in [6], 0.251. The sandwich binding signal in experiment [7] was -0.032; in [9], 0.038; in [10], 0.319; in experiment [11], -0.015; in [12] it was 0.311; in [13], 0.27. Besides, the sandwich binding signal in experiment [14] is 0.244; in [15], 0.346. In experiment [17], the “pSyk EC50” value was 2.4 nM.

B3: 33B12 (antibody, V domains shown)
VH: EVQLVESGGALVQPGGSLRLSCAASGFTFSSFGMSWVRQAPGKGLEWVSYISKSSFTIYYADSVKGRFTISRDNAKNSFYLQMNSLRDEDTAVYYCAREGGLTMVRGVSSYGLDVWGQGTTVTVSS
VL: not shown
notes: human IgG2 from hybridoma
In the case of B3, the sandwich binding signal was 0.47 in [1]; 0.002 in experiment [2]; 0.52 in experiment [3]; 0.384 in experiment [5]; 0.388 in experiment [6]; 0.271 in experiment [7]. In addition, the sandwich binding signal in [9] is 0.454; in [10] it was 0.023; in experiment [11] it was 0.287; in experiment [12], -0.015; in experiment [13] it was -0.017; in experiment [14] it was 0.345. In addition, the sandwich binding signal in experiment [15] was -0.009. Also, in experiment [8], the “OD 450” value was 1.34 OD450. Further, in experiment [17], the “pSyk EC50” value was 1 nM. Moreover, the “Emax (% maximum activation compared to RnD antibody)” value in experiment [16] worked out at 246%. Moreover, the “pSyk EC50, differentiated THP-1 cells” value in [16] was 2.85 nM.

B4: 26C10 (antibody, human IgG2, V domains shown)
VH: EVQLVESGGALVQPGGSLRLSCAASGFTFSSFGMSWVRQAPGKGLEWVSYISSSSFTIYYADSVKGRFTISRDNAKNSFYLQMNSLRDEDTAVYFCVREGGITMVRGVSSYGMDVWGQGTTVTVSS
VL: SFELTQPPSVSVSPGQTASITCSGDKLGDKYVCWYQQKPGQSPMLVIYQDTKRPSGIPERFSGSNSGNTATLTISGTQAMDEADYYCQAWDSSTVVFGGGTKLTVL
notes: human IgG2 from hybridoma
In the case of B4, the sandwich binding signal was 0.541 in experiment [1]; -0.015 in experiment [2]; 0.594 in experiment [3]; -0.033 in experiment [4]; 0.419 in experiment [5]; 0.384 in experiment [6]. Further, the sandwich binding signal in [7] was 0.285; in experiment [9] it was 0.552; in experiment [11] it was 0.323; in experiment [12], -0.042; in experiment [13], -0.031; in experiment [14], 0.418. Besides, the sandwich binding signal in [15] was -0.032. In addition, in experiment [8], the “OD 450” value amounted to 1.59 OD450. Further, the “pSyk EC50” value in [17] was 2.2 nM.

B5: 14C12 (antibody, human IgG2, V domains shown)
VH: EVQLVQSGAEVKKPGESLMISCKGSGYSFTSYWIGWVRQMPGKGLEWMGIIYPGDSDTRYSPSFQGQVTISADKSISTAYLQWSSLKASDTAMYFCARRRQGIWGDALDFWGQGTLVTVSS
VL: EIVMTQSPATLSVSPGERATLSCRASQSVSSNLAWFQQKPGQAPRLLIYGASTRATGIPARFSVSGSGTEFTLTISSLQSEDFAVYYCLQDNNWPPTFGPGTKVDIK
notes: human IgG2 from hybridoma
In the case of B5, the “OD 450” value in experiment [8] was found to be 0.71 OD450. The “pSyk EC50” value in experiment [17] came to 0.4 nM.

The values are drawn from US20220204611A1 (Amgen, published 2022).
